# Positions count from the first letter of the chain named.
# B1: PR001993 (bispecific antibody, human IgG1, kappa, L234A L235A)
# chain 1: EVQLLESGGGLVQPGGSLRLSCAASGFTFNTYAMNWVRQAPGKGLEWVSRIRSKYNNYATYYADSVKDRFTISRDDSKSTLYLQMNSLRAEDTAVYYCVRHGNFGNSYVSWFAYWGQGTLVTVSSRTVAAPSVFIFPPSDEQLKSGTASVVCLLNNFYPREAKVQWKVDNALQSGNSQESVTEQDSKDSTYSLSSTLTLSKADYEKHKVYACEVTHQGLSSPVTKSFNRGEC
# chain 2: QAVVTQEPSLTVSPGGTVTLTCRSSTGAVTTSNYANWVQQKPGQAPRGLIGGTNKRAPWTPARFSGSLLGDKAALTLLGAQPEDEAEYFCALWYSNLWVFGGGTKLTVLSSASTKGPSVFPLAPSSKSTSGGTAALGCLVKDYFPEPVTVSWNSGALTSGVHTFPAVLQSSGLYSLSSVVTVPSSSLGTQTYICNVNHKPSNTKVDKKVEPKSCDKTHTCPPCPAPEAAGGPSVFLFPPKPKDTLMISRTPEVTCVVVDVSHEDPEVKFNWYVDGVEVHNAKTKPREEQYNSTYRVVSVLTVLHQDWLNGKEYKCKVSNKALGAPIEKTISKAKGQPREPQVYTLPPCREEMTKNQVSLWCLVKGFYPSDIAVEWESNGQPENNYKTTPPVLDSDGSFFLYSKLTVDKSRWQQGNVFSCSVMHEALHNHYTQKSLSLSPGK
# chain 3: EVQLVETGGGLIQPGGSLRLSCAASGFTVSSNYMTWVRQAPGKGLEWVSVIFSGGSTYYADSVKGRFTISRDNSKNTLYLQMNSLRAEDTAVYYCARRIAVAGHDVFDIWGQGTMVTVSSASEPKSSDKTHTCPPCPAPEAAGGPSVFLFPPKPKDTLMISRTPEVTCVVVDVSHEDPEVKFNWYVDGVEVHNAKTKPREEQYNSTYRVVSVLTVLHQDWLNGKEYKCKVSNKALGAPIEKTISKAKGQPREPQVCTLPPSREEMTKNQVSLSCAVKGFYPSDIAVEWESNGQPENNYKTTPPVLDSDGSFFLVSKLTVDKSRWQQGNVFSCSVMHEALHNHYTQKSLSLSPGK
# notes: Structure 12 (Fab(cross VH/VL)-Fc-VH): CD3 Fab from PR000511, BCMA VH from PR001035; IgG1 knob/hole, AAG
# B2: PR001994 (bispecific antibody, human IgG1, kappa, L234A L235A)
# chain 1: B1 chain 1
# chain 2: B1 chain 2
# chain 3: EVQLVETGGGLIQPGGSLRLSCAASGFTVSDNYMTWVRQAPGKGLEWVSVIFSGGNTYYADSVKGRFTISRDNAKNTLYLQMNSLRAEDTALYYCARRNYDDTRGTDVFDIWGQGTMVTVSSASEPKSSDKTHTCPPCPAPEAAGGPSVFLFPPKPKDTLMISRTPEVTCVVVDVSHEDPEVKFNWYVDGVEVHNAKTKPREEQYNSTYRVVSVLTVLHQDWLNGKEYKCKVSNKALGAPIEKTISKAKGQPREPQVCTLPPSREEMTKNQVSLSCAVKGFYPSDIAVEWESNGQPENNYKTTPPVLDSDGSFFLVSKLTVDKSRWQQGNVFSCSVMHEALHNHYTQKSLSLSPGK
# notes: Structure 12 (Fab(cross VH/VL)-Fc-VH): CD3 Fab from PR000511, BCMA VH from PR001046; IgG1 knob/hole, AAG
# B3: PR000260, anti-CD3 monoclonal antibody SP34 (hIgG1 chimeric antibody) (antibody, V domains shown)
# VH: EVQLVESGGGLVQPKGSLKLSCAASGFTFNTYAMNWVRQAPGKGLEWVARIRSKYNNYATYYADSVKDRFTISRDDSQSILYLQMNNLKTEDTAMYYCVRHGNFGNSYVSWFAYWGQGTLVTVSA
# VL: QAVVTQESALTTSPGETVTLTCRSSTGAVTTSNYANWVQEKPDHLFTGLIGGTNKRAPGVPARFSGSLIGDKAALTITGAQTEDEAIYFCALWYSNLWVFGGGTKLTVLG
# B4: PR002002 (bispecific antibody, IgG1)
# chain 1: QAVVTQEPSLTVSPGGTVTLTCRSSTGAVTTSNYANWVQQKPGQAPRGLIGGTNKRAPWTPARFSGSLLGDKAALTLLGAQPEDEAEYFCALWYSNLWVFGGGTKLTVLGGGQSGQGGSGGGGSEVQLVESGGGLVQPGGSLKLSCAASGFTFNTYAMNWVRQASGKGLEWVGRIRSKYNNYATYYADSVKDRFTISRDDSKSTLYLQMNSLKTEDTAVYYCVRHGNFGNSYVSWFAYWGQGTLVTVSSASEPKSSDKTHTCPPCPAPEAAGGPSVFLFPPKPKDTLMISRTPEVTCVVVDVSHEDPEVKFNWYVDGVEVHNAKTKPREEQYNSTYRVVSVLTVLHQDWLNGKEYKCKVSNKALGAPIEKTISKAKGQPREPQVYTLPPCREEMTKNQVSLWCLVKGFYPSDIAVEWESNGQPENNYKTTPPVLDSDGSFFLYSKLTVDKSRWQQGNVFSCSVMHEALHNHYTQKSLSLSPGK
# chain 2: B2 chain 3
# notes: Structure 20 (scFv(VL-VH)-Fc-VH): CD3 scFv from PR000510, BCMA VH from PR001046; IgG1 knob/hole, AAG
# B5: PR002000 (bispecific antibody, IgG1)
# chain 1: B4 chain 1
# chain 2: B1 chain 3 with T28P, T35S, S56R, I99N, A100W, V101I, A102D, H104R, V106A
# notes: Structure 20 (scFv(VL-VH)-Fc-VH): CD3 scFv from PR000510, BCMA VH from PR000943; IgG1 knob/hole, AAG
# B6: PR001995 (bispecific antibody, IgG1)
# chain 1: EVQLLESGGGLVQPGGSLRLSCAASGFTFNTYAMNWVRQAPGKGLEWVSRIRSKYNNYATYYADSVKDRFTISRDDSKSTLYLQMNSLRAEDTAVYYCVRHGNFGNSYVSWFAYWGQGTLVTVSSASTKGPSVFPLAPSSKSTSGGTAALGCLVKDYFPEPVTVSWNSGALTSGVHTFPAVLQSSGLYSLSSVVTVPSSSLGTQTYICNVNHKPSNTKVDKKVEPKSC
# chain 2: QAVVTQEPSLTVSPGGTVTLTCRSSTGAVTTSNYANWVQQKPGQAPRGLIGGTNKRAPWTPARFSGSLLGDKAALTLLGAQPEDEAEYFCALWYSNLWVFGGGTKLTVLGQPKAAPSVTLFPPSSEELQANKATLVCLISDFYPGAVTVAWKADSSPVKAGVETTTPSKQSNNKYAASSYLSLTPEQWKSHRSYSCQVTHEGSTVEKTVAPTECSDKTHTCPPCPAPEAAGGPSVFLFPPKPKDTLMISRTPEVTCVVVDVSHEDPEVKFNWYVDGVEVHNAKTKPREEQYNSTYRVVSVLTVLHQDWLNGKEYKCKVSNKALGAPIEKTISKAKGQPREPQVYTLPPCREEMTKNQVSLWCLVKGFYPSDIAVEWESNGQPENNYKTTPPVLDSDGSFFLYSKLTVDKSRWQQGNVFSCSVMHEALHNHYTQKSLSLSPGK
# chain 3: EVQLLESGGGLVQPGGSLRLSCAASGFTFSSYAMIWVRQAPGKGLEWVSGISESGGSTYYADSVKGRFTISRDNSKNTLYLQMNSLRAEDTAVYFCVKDLDDILTGYYKDYWGQGTLVTVSSASEPKSSDKTHTCPPCPAPEAAGGPSVFLFPPKPKDTLMISRTPEVTCVVVDVSHEDPEVKFNWYVDGVEVHNAKTKPREEQYNSTYRVVSVLTVLHQDWLNGKEYKCKVSNKALGAPIEKTISKAKGQPREPQVCTLPPSREEMTKNQVSLSCAVKGFYPSDIAVEWESNGQPENNYKTTPPVLDSDGSFFLVSKLTVDKSRWQQGNVFSCSVMHEALHNHYTQKSLSLSPGK
# notes: CD3 Fab from PR000511, BCMA VH from PR000940; IgG1 knob/hole, AAG
# B7: PR001998 (bispecific antibody, IgG1)
# chain 1: B6 chain 1
# chain 2: B6 chain 2
# chain 3: B2 chain 3
# notes: Structure 13 (Fab(cross Fd/LC)-Fc-VH): CD3 Fab from PR000511, BCMA VH from PR001046; IgG1 knob/hole, AAG
# B8: PR001999 (bispecific antibody, IgG1)
# chain 1: B4 chain 1
# chain 2: B6 chain 3
# notes: IgG1 knob/hole, AAG
# B9: PR001996 (bispecific antibody, IgG1)
# chain 1: B6 chain 1
# chain 2: B6 chain 2
# chain 3: B1 chain 3 with T28P, T35S, S56R, I99N, A100W, V101I, A102D, H104R, V106A
# notes: Structure 13 (Fab(cross Fd/LC)-Fc-VH): CD3 Fab from PR000511, BCMA VH from PR000943; IgG1 knob/hole, AAG
# B10: PR001997 (bispecific antibody, IgG1)
# chain 1: B6 chain 1
# chain 2: B6 chain 2
# chain 3: B1 chain 3
# notes: Structure 13 (Fab(cross Fd/LC)-Fc-VH): CD3 Fab from PR000511, BCMA VH from PR001035; IgG1 knob/hole, AAG
# Molecular target: T1, human CD3 (TCR/CD3 complex) on human T cells (human, UniProt P07766 23-207)
# T1 construct: whole, on cells
# Assay: flow cytometry (FACS) on human T cells, Experiment 1
# Experimental: (§1) The binding ability of the antibody molecules to human or cynomolgus monkey T cells was tested by flow cytometry FACS. […] The T cell density was adjusted to 1×10⁶ cells/mL. […] The cells were incubated at 4° C. for 1 h away from light. Then, the cells in each well were rinsed twice with 100 μL of pre-cooled PBS, and centrifuged at 500 g at 4° C. for 5 min, and then the supernatant was discarded. […] The cells in each well were rinsed twice with 100 μL of pre-cooled PBS, and centrifuged at 500 g at 4° C. for 5 min, and then the supernatant was discarded. Finally, the cells in each well were resuspended in 200 μL of pre-cooled PBS. Fluorescence signal values were read using a BD FACS CANTOII flow cytometer or an ACEA NovoCyte flow cytometer, and the data were processed and analyzed using FlowJo v10 (FlowJo, LLC) software. The data were processed and analyzed by plotting using GraphPad Prism 8 software, and binding curves of the antibodies to target cells, EC₅₀ values and other parameters were obtained through four-parameter nonlinear fitting.
# T1 sequence (P07766 23-207, one chain of several): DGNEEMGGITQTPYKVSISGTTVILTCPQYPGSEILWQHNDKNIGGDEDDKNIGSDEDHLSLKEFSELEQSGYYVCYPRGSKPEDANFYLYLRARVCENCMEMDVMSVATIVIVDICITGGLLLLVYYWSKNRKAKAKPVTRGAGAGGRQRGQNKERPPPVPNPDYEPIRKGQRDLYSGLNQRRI
row,Maximum MFI [MFI],Binder
1,4780,B1
2,3380,B2
3,7160,B3

# Molecular target: T1, human CD3 (TCR/CD3 complex) on human T …
# Assay: flow cytometry (FACS) on human T cells, Experiment 2
# Experimental: as §1
row,Maximum MFI [MFI],Binder
1,1120,B4
2,1730,B5
3,2920,B6
4,3320,B7
5,1170,B8
6,3440,B9
7,4460,B10
8,6030,B3
